According to patent US20230346966A1:

Target: recombinant human TfR1 (human) (UniProt P02786)
Test: SPR (Carterra LSA), IgG captured, TfR1 injected, 25 C

Chain of recombinant human TfR1 (human) (P02786 89-760 limits assumed): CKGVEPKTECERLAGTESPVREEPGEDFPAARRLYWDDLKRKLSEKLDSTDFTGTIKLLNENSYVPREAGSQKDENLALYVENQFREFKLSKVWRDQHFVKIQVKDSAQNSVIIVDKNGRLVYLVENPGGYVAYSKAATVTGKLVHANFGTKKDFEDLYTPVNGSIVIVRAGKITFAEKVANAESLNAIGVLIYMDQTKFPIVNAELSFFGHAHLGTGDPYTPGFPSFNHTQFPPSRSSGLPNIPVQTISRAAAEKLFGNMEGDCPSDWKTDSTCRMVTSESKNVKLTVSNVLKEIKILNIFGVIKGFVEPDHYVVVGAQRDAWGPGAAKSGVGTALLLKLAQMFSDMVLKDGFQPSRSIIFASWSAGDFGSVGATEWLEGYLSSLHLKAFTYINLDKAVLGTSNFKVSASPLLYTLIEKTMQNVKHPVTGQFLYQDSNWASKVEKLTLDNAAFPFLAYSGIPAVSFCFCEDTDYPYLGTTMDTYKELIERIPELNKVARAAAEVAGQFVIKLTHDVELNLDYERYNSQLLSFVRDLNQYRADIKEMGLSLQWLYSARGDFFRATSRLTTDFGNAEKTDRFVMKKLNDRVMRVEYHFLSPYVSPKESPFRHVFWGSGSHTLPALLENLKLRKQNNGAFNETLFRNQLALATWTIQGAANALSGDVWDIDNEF

OKT9 mIgG (control) (antibody)
Kd: 536 pM
kon: 774000 M⁻¹ s⁻¹
